From PMC12534507 come the findings set out here.

In general, stoichiometry N refers to a count of units in the complex or per binding partner.

In assay [1] the target is truncated human Derlin-1 (Derlin-1^Δ215-239) (human) (UniProt Q9BUN8). Put plainly: cryo-EM structure.
The target of assay [2] is wild-type C-terminally Strep-tagged Derlin-1 (human) (UniProt Q9BUN8). The experiment in a line: cross-linking.

As to “truncated human Derlin-1 (Derlin-1^Δ215-239) (from UniProt Q9BUN8) (natural protein)”, in assay [1], the stoichiometry N was determined as 6. Turning to “wild-type C-terminally Strep-tagged Derlin-1 (from UniProt Q9BUN8 1-251) (natural protein)”, in assay [2], the stoichiometry N came to 2.
